From paper PMC3281905, “Structure-Based Rational Design of a Toll-like Receptor 4 (TLR4) Decoy Receptor with High Binding Affinity for a Target Protein” (PLoS ONE, 2012)

B1: TLR4 decoy receptor, TV3 (wild-type) (designed binder)
chain: EPCVEVVPNITYQCMELNFYKIPDNLPFSTKNLDLSFNPLRHLGSYSFFSFPELQVLDLSRCEIQTIEDGAYQSLSHLSTLILTGNPIQSLALGAFSGLSSLQKLVAVETNLASLENFPIGHLKTLKELNVAHNLIQSFKLPEYFSNLTNLEHLDLSSNKIQSIYCTDLRVLHQMPLLNLSLDLSLNPMNFIQPGAFKEIRLKELALDTNQLKSVPDGIFDRLTSLQKIWLHTNPWDCSCPRIDYLSRWLNKNSQKEQGSAKCSGSGKPVRSIICP
modifications: limits from the PDB 2Z65 entity (paper residue number = entity position + 26); secreted from insect cells, immobilized by amine coupling
B2: myeloid differentiation protein 2 (MD2) (natural protein, human)
chain: QKQYWVCNSSDASISYTYCDKMQYPISINVNPCIELKRSKGLLHIFYIPRRDLKQLYFNLYITVNTMNLPKRKEVICRGSDDDYSFCRALKGETVNTTISFSFKGIKFSKGKYKCVVEAISGSPEEMLFCLEFVILHQPN
notes: human MD2 (myeloid differentiation protein 2); Secreted from insect cells with the vector pAcGP67; also called human MD2; source: monomeric MD2 from Superdex 75)

Assays:
Assay in all cases: SPR; Biacore 3000; decoy receptor or variant covalently immobilised on a CM5 chip (EDC/NHS, 500-800 RU); MD2 4 nM to 2 µM in HBS-EP injected at 60 µL/min for 90 sec, 30 min dissociation; 1:1 Langmuir model
Conditions in all cases: both partners purified
[1] = target: B2
[2] = target: TLR4 decoy receptor TV3 D181E (human | hagfish, UniProt O00206 27-228; O00206 27-228, D181E)
[3] = target: TLR4 decoy receptor TV3 F63W (human | hagfish, UniProt O00206 27-228; O00206 27-228, F63W)
[4] = target: TLR4 decoy receptor TV3 V132F (human | hagfish, UniProt O00206 27-228; O00206 27-228, V132F)
[5] = target: TLR4 decoy receptor TV3 N156I (human | hagfish, UniProt O00206 27-228; O00206 27-228, N156I)
[6] = target: TLR4 decoy receptor TV3 S184K (human | hagfish, UniProt O00206 27-228; O00206 27-228, S184K)
[7] = target: TLR4 decoy receptor TV3 M41E (human | hagfish, UniProt O00206 27-228; O00206 27-228, M41E)
[8] = target: TLR4 decoy receptor TV3 V134L (human | hagfish, UniProt O00206 27-228; O00206 27-228, V134L)
[9] = target: TLR4 decoy receptor TV3 F63L (human | hagfish, UniProt O00206 27-228; O00206 27-228, F63L)
[10] = target: TLR4 decoy receptor TV3 H159Q (human | hagfish, UniProt O00206 27-228; O00206 27-228, H159Q)
[11] = target: TLR4 decoy receptor TV3 M41E/F63W (human | hagfish, UniProt O00206 27-228; O00206 27-228, M41E | F63W)
[12] = target: TLR4 decoy receptor TV3 M41E/H159Q (human | hagfish, UniProt O00206 27-228; O00206 27-228, M41E | H159Q)
[13] = target: TLR4 decoy receptor TV3 F63W/V134L (human | hagfish, UniProt O00206 27-228; O00206 27-228, F63W | V134L)
[14] = target: TLR4 decoy receptor TV3 V134L/H159Q (human | hagfish, UniProt O00206 27-228; O00206 27-228, V134L | H159Q)
[15] = target: TLR4 decoy receptor TV3 F63W/D181E (human | hagfish, UniProt O00206 27-228; O00206 27-228, F63W | D181E)

Chain of TLR4 decoy receptor TV3 M41E/F63W (O00206 other isoform, or with tags, fused parts or gaps M41E | F63W | M41E | F63W | M41E F63W): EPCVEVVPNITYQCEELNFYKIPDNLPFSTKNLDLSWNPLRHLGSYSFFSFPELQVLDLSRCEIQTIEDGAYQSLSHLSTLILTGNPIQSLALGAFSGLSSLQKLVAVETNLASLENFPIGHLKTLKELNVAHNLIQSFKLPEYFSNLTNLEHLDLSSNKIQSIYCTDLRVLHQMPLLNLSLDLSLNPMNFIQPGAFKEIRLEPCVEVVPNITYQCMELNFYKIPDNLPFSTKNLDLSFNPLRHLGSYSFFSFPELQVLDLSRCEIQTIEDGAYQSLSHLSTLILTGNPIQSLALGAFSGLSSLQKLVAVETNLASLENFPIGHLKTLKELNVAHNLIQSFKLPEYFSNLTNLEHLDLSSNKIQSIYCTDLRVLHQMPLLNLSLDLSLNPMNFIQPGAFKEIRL
Chain of TLR4 decoy receptor TV3 M41E (O00206 other isoform, or with tags, fused parts or gaps M41E | M41E | M41E): as the sequence (O00206 other isoform, or with tags, fused parts or gaps M41E | F63W | M41E | F63W | M41E F63W) above, with W37F counted along it
Chain of TLR4 decoy receptor TV3 M41E/H159Q (O00206 other isoform, or with tags, fused parts or gaps M41E | H159Q | M41E | H159Q | M41E H159Q): as the sequence (O00206 other isoform, or with tags, fused parts or gaps M41E | F63W | M41E | F63W | M41E F63W) above, with W37F, H133Q counted along it

B1
Kd [1]: 78 nM
koff [1]: 0.00222 s⁻¹
kon [1]: 28400 M⁻¹ s⁻¹

B2
Kd [2]: 48.2 nM
koff [2]: 0.000924 s⁻¹
kon [2]: 19100 M⁻¹ s⁻¹
Kd [3]: 2.84 nM
koff [3]: 3.97e-05 s⁻¹
kon [3]: 13900 M⁻¹ s⁻¹
Kd [4]: 22.2 nM
koff [4]: 0.00154 s⁻¹
kon [4]: 69100 M⁻¹ s⁻¹
Kd [5]: 4.07 nM
koff [5]: 8.05e-05 s⁻¹
kon [5]: 19700 M⁻¹ s⁻¹
Kd [6]: 183 nM
koff [6]: 0.00141 s⁻¹
kon [6]: 7660 M⁻¹ s⁻¹
Kd [7]: 3.21 nM
koff [7]: 5.29e-05 s⁻¹
kon [7]: 16400 M⁻¹ s⁻¹
Kd [8]: 4.11 nM
koff [8]: 0.00011 s⁻¹
kon [8]: 26700 M⁻¹ s⁻¹
Kd [9]: 43.3 nM
koff [9]: 0.00115 s⁻¹
kon [9]: 26500 M⁻¹ s⁻¹
Kd [10]: 4.3 nM
koff [10]: 1e-05 s⁻¹
kon [10]: 2140 M⁻¹ s⁻¹
Kd [11]: 0.026 nM
koff [11]: 5.23e-07 s⁻¹
kon [11]: 20100 M⁻¹ s⁻¹
Kd [12]: 145 nM
koff [12]: 0.000461 s⁻¹
kon [12]: 3160 M⁻¹ s⁻¹
Kd [13]: 283 nM
koff [13]: 0.00103 s⁻¹
kon [13]: 3660 M⁻¹ s⁻¹
Kd [14]: 0.138 nM
koff [14]: 6.12e-06 s⁻¹
kon [14]: 44100 M⁻¹ s⁻¹
Kd [15]: 39 nM
koff [15]: 2.27e-05 s⁻¹
kon [15]: 583 M⁻¹ s⁻¹
